Source: article doi:10.1101/2023.03.10.532066
Where a chain is given by its changes, count along the chain named.

T1: GLK2 (Arabidopsis thaliana, UniProt Q9FFH0 1-386)
T1 sequence: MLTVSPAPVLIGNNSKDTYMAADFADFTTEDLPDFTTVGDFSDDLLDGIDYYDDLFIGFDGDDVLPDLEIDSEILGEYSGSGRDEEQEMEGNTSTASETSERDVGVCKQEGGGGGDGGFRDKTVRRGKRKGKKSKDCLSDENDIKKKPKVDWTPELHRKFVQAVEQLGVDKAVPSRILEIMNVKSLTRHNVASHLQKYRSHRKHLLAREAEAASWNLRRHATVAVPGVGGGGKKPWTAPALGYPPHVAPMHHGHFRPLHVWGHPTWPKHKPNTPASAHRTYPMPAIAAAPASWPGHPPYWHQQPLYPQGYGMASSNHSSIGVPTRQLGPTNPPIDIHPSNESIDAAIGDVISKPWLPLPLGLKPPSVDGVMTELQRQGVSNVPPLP

B1: pDFR-p1m (mpDFR-D-EMSA) (dsDNA)
DNA 1: ATACCAACACTAAAAAAAAAAAAAAAAAAACATAGAAGAAGAGAGCCAC
DNA 2: GTGGCTCTCTTCTTCTATGTTTTTTTTTTTTTTTTTTTAGTGTTGGTAT
B2: TTG1 probe (pTTG1-A-EMSA) (dsDNA)
DNA 1: TCTTTTTTGTCTTCTTATGTGATATCAAATTTTATGATCT
DNA 2: AGATCATAAAATTTGATATCACATAAGAAGACAAAAAAGA
B3: pTTG1m (mpTTG1-A-EMSA) (dsDNA)
DNA 1: B2 DNA 1 with G21A, T23A, T25A, C26A
DNA 2: B2 DNA 2 with G15T, A16T, A18T, C20T

What was measured:
GLK2 [1] = molecular target: T1, GLK2; assay: competition
GLK2 [2] = molecular target: T1, GLK2; assay: EMSA

Binder	binding result (GLK2 [1])	binding result (GLK2 [2])
B1	no binding	
B2		binds
B3		no binding
